The text below walks through data of patent US20230045791A1 (HIFIBIO, published 2023).

In assay [1] the target is T1, mouse TNFR2 expressed on CHO cells (mouse, UniProt P25119 23-474).
T1 construct: whole, on cells; also called mouse ortholog
T1 sequence (looked up): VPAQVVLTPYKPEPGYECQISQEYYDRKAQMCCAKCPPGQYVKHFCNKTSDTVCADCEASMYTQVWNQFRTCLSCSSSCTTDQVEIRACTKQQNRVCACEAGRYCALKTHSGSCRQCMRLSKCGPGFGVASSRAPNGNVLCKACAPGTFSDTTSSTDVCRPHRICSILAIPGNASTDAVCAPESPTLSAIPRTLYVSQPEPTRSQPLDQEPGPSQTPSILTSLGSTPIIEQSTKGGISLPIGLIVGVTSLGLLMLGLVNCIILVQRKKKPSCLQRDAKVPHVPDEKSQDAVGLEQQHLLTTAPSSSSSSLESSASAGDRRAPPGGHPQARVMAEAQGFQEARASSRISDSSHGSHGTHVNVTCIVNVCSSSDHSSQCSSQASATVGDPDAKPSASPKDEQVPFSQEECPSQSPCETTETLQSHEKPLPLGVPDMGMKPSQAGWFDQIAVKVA
The experiment in a line: flow cytometry on CHO cells expressing mouse TNFR2. As for the experimental part: (§1) These monoclonal antibodies were then tested for their abilities to bind human and monkey TNFR2 expressed by CHO cells (CHO.hHFB3 and CHO.mkHFB3 cells respectively). Briefly, about 40,000 CHO.hHFB3 or CHO.mkHFB3 cells were seeded in tissue culture wells, and serial 1:3 dilutions of each test antibodies, with starting (highest) concentration of about 66 nM antibody, were added to each cell type and incubated for about an hour. Antibodies bound to the cells were detected by using 17 nM of anti-human Fc antibody labeled by AF647 (ALEXSA FLUOR® 647 fluorescent dye). An isotype matched negative control antibody was also used in this assay. The data, including EC₅₀ values and Eₘₐₓ for each antibody, were compiled in FIG. 2A.
The same experiments were also set up to test the ability of the test antibodies to bind CHO cells expressing mouse TNFR2 and the parental CHO cell lines (which may or may not express hamster TNFR2).
For orientation: A flow cytometer gives signals particle by particle.

Assay [2] concerns the target T2, His-tagged recombinant human TNFR1 (human, UniProt P19438 30-211, limits assumed).
T2 construct: also called rhTNFR1; hTNFR1-His; not shown: His tag
T2 sequence (looked up): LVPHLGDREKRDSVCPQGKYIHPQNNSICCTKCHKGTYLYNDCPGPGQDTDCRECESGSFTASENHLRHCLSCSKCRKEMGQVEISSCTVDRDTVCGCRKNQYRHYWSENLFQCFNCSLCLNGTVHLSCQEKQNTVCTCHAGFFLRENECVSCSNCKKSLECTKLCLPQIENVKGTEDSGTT
Briefly: ELISA, plate coated with 0.1 µg/mL His-tagged recombinant human TNFR1. How it is done:
(§2) Briefly, tissue culture plates were coated with either 0.1 μg/mL of His-tagged recombinant human TNFR2 or TNFR1 overnight at 4° C. The coated plates were then incubated for about 1 hour on ice with 1:3 serial dilutions of each test antibodies, with starting (highest) concentration of about 66 nM antibody. Antibodies bound to the cells were detected by using 1:5000 dilution of HRP-labeled anti-human Fc antibody and TMB substrate. Isotype matched negative control antibody F3, as well as the MR2-1 positive control antibody specific for rhTNFR2 and a positive control antibody specific for rhTNFR1 were also used in this assay. The data, including EC₅₀ values for each antibody, were compiled in FIG. 4A.
For orientation: An ELISA detects its analyte on a solid surface through an enzyme-linked reagent.

In assay [3] the target is T3, His-tagged recombinant human TNFR2 (human, UniProt P20333 23-257).
T3 construct: extracellular domain; also called rhTNFR2; hTNFR2-His; not shown: His tag
T3 sequence (looked up): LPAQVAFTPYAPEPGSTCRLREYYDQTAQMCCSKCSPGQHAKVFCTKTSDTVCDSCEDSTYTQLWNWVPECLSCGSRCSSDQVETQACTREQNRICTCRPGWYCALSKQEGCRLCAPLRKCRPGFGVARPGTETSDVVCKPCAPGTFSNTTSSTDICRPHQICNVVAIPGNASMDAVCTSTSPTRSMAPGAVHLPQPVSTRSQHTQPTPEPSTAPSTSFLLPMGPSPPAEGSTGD
The experiment in a line: ELISA, plate coated with 0.1 µg/mL His-tagged recombinant human TNFR2, HRP anti-human Fc. How it is done:
as §2

For assay [4], the target named is T4, human TNFR2 expressed on cells (CHO.hHFB3 / CHO.hTNFR2 cells; primary human T cells) (human, UniProt P20333 23-461).
T4 construct: whole, on cells
T4 sequence (looked up): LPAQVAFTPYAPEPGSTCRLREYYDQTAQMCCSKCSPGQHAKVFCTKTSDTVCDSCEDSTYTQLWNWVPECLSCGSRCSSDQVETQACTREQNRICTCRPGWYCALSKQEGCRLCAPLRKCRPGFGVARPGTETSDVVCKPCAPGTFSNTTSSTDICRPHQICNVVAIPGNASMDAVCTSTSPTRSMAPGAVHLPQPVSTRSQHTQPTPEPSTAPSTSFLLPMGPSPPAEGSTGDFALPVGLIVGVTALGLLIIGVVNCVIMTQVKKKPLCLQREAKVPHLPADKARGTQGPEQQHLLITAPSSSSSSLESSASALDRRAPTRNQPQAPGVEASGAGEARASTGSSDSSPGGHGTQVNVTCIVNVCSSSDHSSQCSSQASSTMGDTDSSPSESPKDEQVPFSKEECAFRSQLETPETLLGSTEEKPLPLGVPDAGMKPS
The experiment in a line: flow cytometry on CHO cells expressing human TNFR2 (CHO.hHFB3), anti-human Fc-AF647 detection. As for the experimental part: as §1

Assay [5] has as its target T2, His-tagged recombinant human TNFR1. Briefly: ELISA on recombinant hTNFR1-His.
Assay [6] has as its target T3, His-tagged recombinant human TNFR2. The experiment in a line: ELISA on recombinant hTNFR2-His (FIG. 14A).
The target of assay [7] is T4, human TNFR2 expressed on cells …. The experiment in a line: flow cytometry on CHO cells expressing human TNFR2 (FIG. 12A).

B1: HFB3-18-hG1 (mouse monoclonal antibody) (antibody, human IgG1, kappa, V domains shown)
VH: EVKLEESGGGLVQPGGSMKLSCAASGFTFSDAWMDWVRQSPEKGLEWVAEVRNKANNHATYYAESVKGRFTISRDDSKSSVYLQMNSLRAEDTGIYYCTRSVGGYGTTYWYFDVWGTGTTVTVSS
VL: DIVMTQSPSSLSVSAGEKVTMSCKSSQNLLNSGNQKNYLAWYQQKPGQPPKLLIFGASTRESGVPDRFTGSGSGTDFTLTISSVQAEDLAVYYCQSEHSYPYTFGGGTKLEIKR
notes: also called human-mouse chimeric monoclonal antibody HFB3-18
Turning to B1, the binding result in assay [1] is recorded as “binds”; in assay [2], “no binding (tested: highest concentration about 66 nM)”; in assay [3] it was “binds”; in assay [4], “binds”.

B2: HFB3-18hz1-hG1 (humanized monoclonal antibody) (antibody, V domains shown)
VH: EVQLVESGGGLVQPGGSLKLSCAASGFTFSDAWMDWVRQASGKGLEWVGEVRNKANNHATYYAASVKGRFTISRDDSKNTAYLQMNSLKTEDTAVYYCTRSVGGYGTTYWYFDVWGQGTTVTVSS
VL: DIVMTQSPDSLAVSLGERATINCKSSQNLLNSGNQKNYLAWYQQKPGQPPKLLIFGASTRESGVPDRFSGSGSGTDFTLTISSLQAEDVAVYYCQSEHSYPYTFGQGTKLEIKR
Turning to B2, the results for the binding result in assay [5], in assay [6] and in assay [7] were “no binding”, “binds” and “binds”, respectively.

B3: HFB3-1-hG1 (mouse monoclonal antibody) (antibody, human IgG1, kappa, V domains shown)
VH: EFQLQQSGPELVKPGASVKISCKASSYSFTDYNMNWVKQSNGKSLEWIGIIFPKYGTTSYNQKFKGKATLTVDQSSSTAYMQLNSLTSEDSAVYYCATDGGTWYFDVWGTGTTVTVSS
VL: QIVLTQSPALMSASPGEKVTMTCSASSSVTYMYWYQQKPRSSPKPWIYLTSNLASGVPARFSGSGSGTSYSLTISSMEAEDAATYYCQQWSSNPPTFGSGTKLEIKR
notes: also called human-mouse chimeric monoclonal antibody HFB3-1; parental HFB3-1-hG1
In the case of B3, the binding result is “no binding (tested: highest concentration about 66 nM)” in assay [2], “binds” in assay [3] and “binds” in assay [4].

B4: HFB3-1hz6-hG1 (humanized monoclonal antibody) (antibody, V domains shown)
VH: QVQLVQSGAELKKPGASVKVSCKASSYSFTDYNMNWVRQAPGQSLEWMGIIFPKYGTTSYAQKLQGRVTLTTDTSTSTAYMELRSLRSDDTAVYYCATDGGTWYFDVWGTGTTVTVSS
VL: DIQLTQSPSFLSASVGDRVTITCRASSSVTYMYWYQQKPGKAPKPWIYLTSNLASGVPSRFSGSGSGTEYTLTISSLQPEDAATYYCQQWSSNPPTFGSGTKLEIKR
Take B4: the binding result in assay [5] is “no binding”; in assay [6], “binds”; in assay [7], “binds”.

B5: HFB3-14hz1c-hG1 (humanized monoclonal antibody) (antibody, V domains shown)
VH: QVQLVQSGAEVKKPGSSVKVSCKASGYTFTDYYMNWVRQAPGQGLEWMGDINPNDGGTTYAQKFQGRVTITADESTSTAYMELSSLRSEDTAVYFCAREGNYYAYDVRVWYFDVWGQGTTVTVSS
VL: DIQMTQSPSSLSASVGDRVTITCGASQDIITYLNWYQQKPGKAVKLLIYSTSSLNSGVPSRFSGSGSGTDFTLTISSLQPEDFATYYCQQYSELPYTFGGGTKVELKR
notes: also called HFB3-141c-hG1
Consider B5, for which, in assay [5], the binding result is recorded as “no binding”.
